The values below come from patent US5763571A, “Inhibiting protein interactions” (The General Hospital Corporation, priority 1995, dated 1998).

One test deals with T1, Ras-GTP (Homo sapiens, UniProt P01112).
T1 construct: made in house; host or cells: E. coli
In words: Comparative co-precipitation of Ras-GTP-γ-32P by GST-Raf proteins. Format: binding. The conditions noted are these: 10 pmol GST-Raf protein, single concentration.

Test [1] concerns the target T2, complex formation between Ras-GTP and GST-Raf(1-257) (Homo sapiens, UniProt P01112+P04049).
T2 construct: 6xHis (6XH) (C); made in house; host or cells: E. coli
The test is described as follows: Inhibition of Ras/Raf co-precipitation by synthetic peptides (contact epitope scanning). Format: binding.

In the next test the target is T3, GAP (Homo sapiens, UniProt P20936).
T3 sequence (P20936 1-1047): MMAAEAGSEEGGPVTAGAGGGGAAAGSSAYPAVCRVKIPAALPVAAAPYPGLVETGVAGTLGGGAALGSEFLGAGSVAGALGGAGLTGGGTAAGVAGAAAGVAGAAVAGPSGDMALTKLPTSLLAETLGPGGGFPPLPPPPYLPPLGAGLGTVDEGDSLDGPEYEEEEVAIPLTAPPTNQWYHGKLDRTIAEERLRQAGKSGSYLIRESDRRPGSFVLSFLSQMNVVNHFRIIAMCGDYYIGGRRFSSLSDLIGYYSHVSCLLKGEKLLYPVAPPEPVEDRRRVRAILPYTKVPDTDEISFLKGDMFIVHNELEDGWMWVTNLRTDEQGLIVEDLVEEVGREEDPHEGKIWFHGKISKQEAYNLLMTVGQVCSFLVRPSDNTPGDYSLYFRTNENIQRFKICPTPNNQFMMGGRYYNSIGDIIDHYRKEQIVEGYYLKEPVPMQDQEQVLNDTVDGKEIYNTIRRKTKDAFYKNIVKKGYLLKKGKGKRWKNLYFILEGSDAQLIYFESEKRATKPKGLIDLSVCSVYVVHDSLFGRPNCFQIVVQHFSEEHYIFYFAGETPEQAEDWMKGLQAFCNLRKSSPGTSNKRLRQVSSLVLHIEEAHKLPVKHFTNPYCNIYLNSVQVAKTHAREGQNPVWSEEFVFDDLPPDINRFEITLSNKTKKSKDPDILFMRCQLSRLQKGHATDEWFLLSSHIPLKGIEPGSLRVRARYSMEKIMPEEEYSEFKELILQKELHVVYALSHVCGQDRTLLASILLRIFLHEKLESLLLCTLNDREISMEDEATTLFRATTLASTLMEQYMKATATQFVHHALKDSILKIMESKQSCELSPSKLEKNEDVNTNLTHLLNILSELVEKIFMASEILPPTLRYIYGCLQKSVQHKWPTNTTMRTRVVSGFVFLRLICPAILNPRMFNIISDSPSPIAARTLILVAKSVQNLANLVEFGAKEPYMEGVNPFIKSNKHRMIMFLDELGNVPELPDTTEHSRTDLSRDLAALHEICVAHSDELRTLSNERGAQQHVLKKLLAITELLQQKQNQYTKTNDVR
Particulars: Schaber et al. 1989; cited from earlier work.

Test [2] has as its target T4, Ras-GAP stimulation of c-rasH GTPase (Homo sapiens, UniProt P01112).
T4 construct: made in house; host or cells: Sf9 (baculovirus)
The test is described as follows: Inhibition of Ras-GAP stimulation of c-rasH GTPase. The conditions noted are these: added at a concentration nearly equal to Ras-GAP. Format: biochemical. As for the experimental part:
The GTPase activity was estimated from the γ^32 P-GTP remaining bound to c-rasH after filtration.
In these experiments, baculoviral recombinant c-rasH was expressed and purified from the membrane pellet of Sf9 cells as described for the baculoviral membrane V12GrasH above. The c-rasH was charged with γ^32 P-GTP by combining 0.1 ml of c-rasH (approximately 10 μg/ml) in Ras storage buffer with 0.3 ml of 60 mM TrisCl, pH 7.5, 5 mM EDTA, 0.7 mg/ml BSA, 1.5 mM DTT, 4 mM ATP, 0.142 μM γ^32 P-GTP (4-6 ×10^5 cpm/pmole) on ice. After 1 hour, 50 μl of 135 mM MgCl2 was added. Loading of c-rasH with α^32 P-GTP was carried out under the same conditions; the α^32 P-GTP-c-rasHwas separated from unbound nucleotide by gel filtration (PD-10) in 25 mM TrisCl, pH 7.5, 5 mM MgCl2, 3 mM ATP, 1 mM DTT, and stored on ice. Baculoviral recombinant, full-length human GAP protein was extracted from Sf9 cells by homogenization in 25 mM TrisCl pH 7.5, 1 mM EGTA, 5 mM MgCl2, 1 mM DTT (GAP buffer) and protease inhibitors. […] GAP was detected using a radiolabeled Ras peptide in a filter binding assay. […] The mixture was filtered through a BA85 nitrocellulose membrane, washed 3×with 4 ml of stop solution, and the filters analyzed for retained ^32 P-labeled nucleotide.

A further test relates to GTPγS-loaded V12GrasH. In words: In vitro direct binding of Ras to immobilized GST-Raf (immunoblot). Particulars: immobilized on glutathione agarose, 6 hours 4° C., pan-Ras immunoblot. As for the experimental part:
In vitro direct binding experiments were carried out as follows. […] After 6 hours of tumbling at 4° C., the glutathione agarose beads were washed and analyzed for the binding of Ras peptide by sodium dodecyl sulfate-polyacrylamide gel electrophoresis (SDS-PAGE), followed by immunoblotting using a pan-Ras monoclonal antibody-2 (oncogene Science).
The DNA sequences encoding Raf1 amino acid residues 1-257 were generated by the polymerase chain reaction (PCR), using as template the plasmids RSV-C4 and RSV-PM17 (Bruder, J. T., Heidecker, G. & Rapp, U.R. Genes Dev. 6, 545-556 (1992)), which encode the wild-type and C168 →S mutant sequences, respectively. The c-DNA were inserted into pGEX-KG (Guan, K. L. and Dixon J. E., Anal Biochem. 192, 262-267 (1991)) at the EcoR1 and Sall sites, and sequenced to confirm the mutation and proper in-frame insertion. […] About 50% of the recombinant peptides were recovered as full-length fusion proteins. […] The beads were washed 4×and resuspended in buffer A as a 50% suspension. […] Following transfer to polyvinylidene difluoride (PVDF) membrane, the membrane was immunoblotted using pan-Ras monoclonal antibody-2 (Oncogene Science) and detected using the enhanced chemiluminescence technique (Amersham).

Regarding “GST-Raf(1-131): GST fusion of c-Raf-1 residues 1-131, unstable”, the “Complex formation with Ras-GTP-γ-32P by co-precipitation (in words)” value with Ras-GTP is recorded as “complexed as well with Ras-GTP”. With “96-112 peptide: acetylated, C-terminal amide peptide of c-Raf-1 residues 96-112 (Ac-CAVFRLLHEHKGKKARL-NH2)”, in test [1], the “Inhibition of Ras-Raf association by peptide (in words)” value is given as “little inhibition”. On to “31-43: Ras peptide of a previous study (Schaber et al.) (EYDPTIEDSYRKQ; UniProt P01112 31-43, looked up, fragment)”, for which, in the test with GAP, the “Competition of Ras/GAP interaction (in words), previous study” value is “did not compete at all”. Take “Ras 23-37: Ras peptide of a previous study (Schaber et al.) (LIQNHFVDEYDPTIE; UniProt P01112 23-37, looked up, fragment)”: the “Competition of Ras/GAP interaction (in words), previous study” value with GAP is on record as “did not compete at all”. Turning to “GST-Raf(1-257, C168 →S): mutant fragment in which serine replaces cysteine at position 168”, in test [2], the “Inhibition of Ras-GAP stimulation of Ras GTPase (in words)” value is “significantly less inhibition”. For the same substance, in the test with GTPγS-loaded V12GrasH, the “Binding of GTPγS-V12GrasH (in words)” value was “significantly lower amounts of Ras are retained”. For “GST-Raf(51-149): GST fusion of c-Raf-1 residues 51-149 (SEQ ID NO:7)”, in the test with Ras-GTP, the “Complex formation with Ras-GTP-γ-32P by co-precipitation (in words)” value was “complexed as well with Ras-GTP”.
